The text below walks through data of patent US20250101074A1 (Affibody, published 2025).

Assay in all cases: SPR (Biacore), PEP07843 immobilized, analyte protein injected
A general note: SPR reads the build-up and loss of mass on a sensor chip optically.

Test [1] deals with T1, human IL-17A (human, UniProt Q16552 20-155).
T1 construct: Peprotech cat. no; 200-17; homodimeric cytokine; biotinylated with Sulfo-NHS-LC-Biotin for the ELISAs; also called hIL-17A; rhIL-17A
T1 sequence: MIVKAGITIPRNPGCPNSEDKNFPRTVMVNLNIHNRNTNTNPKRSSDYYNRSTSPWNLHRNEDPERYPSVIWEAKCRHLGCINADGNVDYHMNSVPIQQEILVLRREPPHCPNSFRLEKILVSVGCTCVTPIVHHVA
How it is done: (§1) In the binding experiment, HBS-EP was used as running buffer and the flow rate was 30 μl/min. […] The analytes, i.e. the panels of 24 or 12 different proteins, were each diluted in HBS-EP or HBS-EP supplemented with 500 mM NaCl to final concentrations of from 0.4 to 250 nM and injected for 5 min. […] The results were analyzed using the BiaEvaluation software.
(§2) The Z-ABD-Z polypeptides were injected over surfaces containing HSA followed by injection of the analyte proteins.

For test [2], the target named is hGM-CSF (human, UniProt P04141 18-144). The method, then: as §1, §2
Test [3] addresses Transthyretin/TTR/Prealbumin/PALB Protein (UniProt P02766 21-147). How it is done:
as §1, §2

Test [4] concerns the target T2, Haptoglobin Human (seems to be beta chain) (human, UniProt P00738 162-406, limits assumed).
T2 sequence (looked up): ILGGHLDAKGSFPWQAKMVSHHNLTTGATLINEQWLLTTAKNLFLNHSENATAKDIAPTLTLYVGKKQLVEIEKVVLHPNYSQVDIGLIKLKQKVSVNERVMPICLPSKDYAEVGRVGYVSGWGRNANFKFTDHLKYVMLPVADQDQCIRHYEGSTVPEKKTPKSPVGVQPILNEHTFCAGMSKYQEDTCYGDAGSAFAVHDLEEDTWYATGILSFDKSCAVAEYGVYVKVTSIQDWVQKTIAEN
The method, then:
as §1, §2

The target of test [5] is T3, human IL-17A/F heterodimer (human, UniProt Q16552 20-155; Q96PD4 31-163, limits assumed).
T3 construct: bought; also called hIL-17A/F
T3 sequence (looked up) 1: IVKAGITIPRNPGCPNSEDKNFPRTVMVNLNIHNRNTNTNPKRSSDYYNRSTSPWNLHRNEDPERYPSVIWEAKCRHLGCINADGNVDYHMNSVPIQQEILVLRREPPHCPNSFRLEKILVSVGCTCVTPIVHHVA
T3 sequence (looked up) 2: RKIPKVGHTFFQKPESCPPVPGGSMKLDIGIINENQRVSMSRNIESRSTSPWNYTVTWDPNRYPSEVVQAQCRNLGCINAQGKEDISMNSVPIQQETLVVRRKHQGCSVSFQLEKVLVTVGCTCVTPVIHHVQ
How it is done:
as §1, §2

Test [6] has as its target hIL-1beta (human, UniProt P01584 117-269). The method, then: as §1, §2
In test [7] the target is T4, Human a-2 macroglobulin (human, UniProt P01023 24-1474).
T4 sequence (looked up): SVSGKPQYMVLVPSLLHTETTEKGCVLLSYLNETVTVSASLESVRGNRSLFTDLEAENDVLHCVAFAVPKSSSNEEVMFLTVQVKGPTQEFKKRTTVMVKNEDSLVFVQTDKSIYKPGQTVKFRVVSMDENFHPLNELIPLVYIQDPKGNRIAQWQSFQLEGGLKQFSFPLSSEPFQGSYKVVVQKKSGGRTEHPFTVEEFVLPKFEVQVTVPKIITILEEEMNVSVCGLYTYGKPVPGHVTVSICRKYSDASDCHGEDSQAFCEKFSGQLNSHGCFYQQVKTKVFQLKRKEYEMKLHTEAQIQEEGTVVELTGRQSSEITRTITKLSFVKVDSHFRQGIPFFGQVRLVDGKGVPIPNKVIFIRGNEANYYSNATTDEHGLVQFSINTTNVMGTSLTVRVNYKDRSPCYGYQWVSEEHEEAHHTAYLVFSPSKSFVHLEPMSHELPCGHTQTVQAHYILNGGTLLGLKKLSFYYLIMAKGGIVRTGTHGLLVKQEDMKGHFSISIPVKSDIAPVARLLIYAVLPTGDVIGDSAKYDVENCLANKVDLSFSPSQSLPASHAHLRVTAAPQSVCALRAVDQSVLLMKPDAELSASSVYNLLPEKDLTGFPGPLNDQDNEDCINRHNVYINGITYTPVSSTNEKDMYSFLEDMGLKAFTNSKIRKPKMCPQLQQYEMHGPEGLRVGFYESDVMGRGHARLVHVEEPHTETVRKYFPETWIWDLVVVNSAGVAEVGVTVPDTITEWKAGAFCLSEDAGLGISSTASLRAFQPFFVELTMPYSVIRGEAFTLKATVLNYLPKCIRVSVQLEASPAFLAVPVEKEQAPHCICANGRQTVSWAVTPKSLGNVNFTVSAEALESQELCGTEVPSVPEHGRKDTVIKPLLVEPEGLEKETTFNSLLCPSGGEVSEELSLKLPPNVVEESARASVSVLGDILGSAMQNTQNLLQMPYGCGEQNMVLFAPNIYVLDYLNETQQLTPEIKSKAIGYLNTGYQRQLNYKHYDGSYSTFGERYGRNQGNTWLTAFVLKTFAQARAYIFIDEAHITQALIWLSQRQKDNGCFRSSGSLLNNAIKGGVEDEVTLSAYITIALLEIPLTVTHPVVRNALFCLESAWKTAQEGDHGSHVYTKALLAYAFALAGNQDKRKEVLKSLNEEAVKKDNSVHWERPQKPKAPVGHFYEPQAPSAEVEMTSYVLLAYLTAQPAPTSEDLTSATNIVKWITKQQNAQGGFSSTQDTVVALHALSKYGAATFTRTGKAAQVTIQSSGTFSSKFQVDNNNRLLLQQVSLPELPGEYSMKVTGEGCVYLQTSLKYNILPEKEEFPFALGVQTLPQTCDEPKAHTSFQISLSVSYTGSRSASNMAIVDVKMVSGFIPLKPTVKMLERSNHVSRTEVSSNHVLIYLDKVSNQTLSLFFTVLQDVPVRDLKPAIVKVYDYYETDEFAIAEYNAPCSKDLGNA
How it is done: as §1, §2

Chain of hGM-CSF (P04141 18-144 limits assumed): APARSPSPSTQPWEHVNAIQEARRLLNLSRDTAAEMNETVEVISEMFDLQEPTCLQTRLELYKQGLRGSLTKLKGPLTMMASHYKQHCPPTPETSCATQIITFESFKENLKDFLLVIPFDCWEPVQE

Consider GSSLAEAKEAANAELDSYGVSDFYKRLIDKAKTVEGVEALKDAILAALP (designed binder) [ABD variant PEP07843], for which the binding result in test [1] is “no binding (tested: 2, 10, 50 nM)”; in test [2], “no binding (tested: 50, 250 nM)”; in test [3], “no binding (tested: 50, 250 nM)”; in test [4] it was “no binding (tested: 50, 250 nM)”; in test [5] it was “no binding (tested: 50, 250 nM)”; in test [6], “no binding (tested: 50, 250 nM)”. Besides, in test [7], the binding result was “no binding (tested: 50, 250 nM)”.
